According to article PMC7617732 (2024):

Columns and labels:
Assay in all cases: SPR
[1] = biological target: m6
[2] = biological target: m7
[3] = biological target: 3FTx-L8
[4] = biological target: T1, 3FTx-L2 (recombinant long-chain three-finger α-neurotoxin variant)
T1 chain: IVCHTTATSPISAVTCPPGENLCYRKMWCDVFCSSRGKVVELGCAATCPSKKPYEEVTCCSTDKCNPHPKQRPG

[5] = biological target: T2, 3FTx-L15 (recombinant long-chain three-finger α-neurotoxin variant)
T2 chain: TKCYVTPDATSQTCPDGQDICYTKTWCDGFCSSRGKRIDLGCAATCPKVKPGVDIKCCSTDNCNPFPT

B1: 95Mat5 (human IgG) (antibody, V domains shown)
VH: QVQLVQSGAEVKKPGSSVKVSCKASGGTFSSYAISWVRQAPGQGLEWMGGYIPIFGTANYAQKFQGRVTITADESTSTAYMELSSLRSEDTAVYYCARIPLRWYESGPYESGVFDYWGQGTLVTVSS
VL: not shown
B1 was tested, and the Kd [1] was 0.11 nM, the Kd [2] was 0.24 nM and the Kd [3] was < 0.01 nM. For the same binder, the Kd [4] was 0.72 nM and the Kd [5] was 0.61 nM.
